This is an account of results in patent US20240409637A1 (Regeneron, published 2024).

Experiment [1] concerns the target T1, human CD8 on cells (primary human CD8 positive T cells); T cells of mice expressing hCD8; human PBMC-derived … (human, UniProt P01732 22-235; P10966 22-210).
T1 construct: This is native CD8 on cells
The experiment in a line: flow cytometry on primary human CD8 positive T cells. The method, then:
Recombinant human IL-2 (50 IU/ml) was supplemented into culture media 72 hours post CD3/CD28 Dynabead incubation. When cells had expanded to the necessary cell number for flow cytometry analysis, the Dynabeads were removed by magnetic separation and cells were immediately used to determine the binding of CD8 antibodies or isotype controls.
(§1) mAb1 and isotype control antibodies were 4 fold serially diluted in stain buffer (PBS containing 2% FBS) in either an 8-point titration for human CD8 positive T cells or 11 point titration for cynomolgus monkey T cells, starting at a concentration of 200 nM. A sample without primary antibody, stain buffer only, was also included as a control. Antibody titrations were plated out, 50 ul/well, into V-bottom microplates. Primary human and cynomolgus monkey T cells were stained for 15 minutes with LIVE/DEAD™ Fixable Violet Dead Cell Stain (Invitrogen) diluted 1:1000 in PBS. Cells were washed twice, and resuspended in PBS containing 2% FBS. To gate out CD4+ monkey T cells a CD4 antibody from BD Biosciences, that reacts with cynomolgus CD4+ T cells, was incubated with monkey T cells for 30 min on ice and cells were subsequently washed once with stain buffer. […] Samples were analyzed with the FlowJo10 software such that only viable, CD8 positive, single cells were evaluated for antibody binding.
On the technique in general: Flow cytometry measures light scatter and fluorescence of single cells or particles in a stream.

Experiment [2] concerns the target T1, human CD8 on cells (primary human CD8 …). The experiment in a line: flow cytometry on primary human CD8 positive T cells, APC anti-mouse IgG secondary. The method, then:
as §1, with “buffer. Human CD8 positive and monkey T cells in stain buffer were plated such that 50 ul of cell suspension, containing approximately 150,000 T cells, were added into wells of the 96-well V-bottom microplate containing the titrated antibodies.” for “buffer.”

The target of experiment [3] is T2, cynomolgus monkey CD8 on cynomolgus monkey T cells (cynomolgus monkey). As to the kind of experiment: flow cytometry on cynomolgus monkey T cells (CD4+ gated out), APC anti-mouse IgG secondary. The method, then: as §1, with “buffer. Human CD8 positive and monkey T cells in stain buffer were plated such that 50 ul of cell suspension, containing approximately 150,000 T cells, were added into wells of the 96-well V-bottom microplate containing the titrated antibodies.” for “buffer.”

The target of experiment [4] is T2, cynomolgus monkey CD8 on cynomolgus …. As to the kind of experiment: flow cytometry on cynomolgus monkey T cells. The method, then:
as §1, with “buffer. Human CD8 positive and monkey T cells in stain buffer were plated such that 50 ul of cell suspension, containing approximately 150,000 T cells, were added into wells of the 96-well V-bottom microplate containing the titrated antibodies.” for “buffer.”

The target is the same in experiment [5]. The experiment in a line: flow cytometry (geometric MFI of APC, secondary APC goat anti-mouse IgG) on cynomolgus monkey T cells gated on CD8 positive cells; four-parameter fit; unit taken from the axis 'Concentration of Antibody Log (M)' [panel Cynomolgus Monkey T-cells, table under the plot]. The method, then:
as §1, with “buffer. Human CD8 positive and monkey T cells in stain buffer were plated such that 50 ul of cell suspension, containing approximately 150,000 T cells, were added into wells of the 96-well V-bottom microplate containing the titrated antibodies.” for “buffer.”

Experiment [6] deals with T3, hCD8α with a C-terminal myc-myc-polyhistidine tag (hCD8α.mmh, REGN3940) (human, UniProt P01732 22-182).
T3 construct: not shown: C-terminal myc-myc-polyhistidine tag
As to the kind of experiment: SPR (Sierra Sensors MASS-1), mAb captured by anti-mouse Fc, hCD8α.mmh as analyte, 25°C. As for the experimental part: Equilibrium dissociation constants (KD values) for hCD8α.mmh binding to purified anti-CD8 mAbs were determined using a real-time surface plasmon resonance biosensor using a Sierra Sensors MASS-1 high-capacity amine sensor surface was derivatized by amine coupling with a polyclonal goat anti-mouse Fc antibody (GE, #BR-1008-38) to capture purified anti-CD8 mAbs. SPR binding studies were performed in a buffer composed of 0.01M HEPES pH 7.4, 0.15M NaCl, 3 mM EDTA, 0.05% v/v Surfactant P20 (HBS-ET running buffer). Different concentrations of hCD8α with a C-terminal myc-myc-polyhistidine tag (hCD8α.mmh, REGN3940) prepared in HBS-ET running buffer (ranging from 300 nM to 3.7 nM, 3-fold dilutions) were injected over the anti-CD8 mAb captured surface at a flow rate of 50 μL/minute. Association of hCD8α.mmh to the captured monoclonal antibody was monitored for 4 minutes and the dissociation of hCD8α.mmh in HBS-ET running buffer was monitored for 10 minutes. All of the binding kinetics experiments were performed at 25° C. Kinetic association (kₐ) and dissociation (kd) rate constants were determined by fitting the real-time sensorgrams to a 1:1 binding model using Scrubber 2.0c curve fitting software. Binding dissociation equilibrium constants (KD) and dissociative half-lives (t½) were calculated from the kinetic rate constants as: […]

In experiment [7] the target is T1, human CD8 on cells (primary human CD8 …). The experiment in a line: flow cytometry (geometric MFI of APC, secondary APC goat anti-mouse IgG) on primary human CD8 positive T cells; four-parameter fit; unit taken from the axis 'Concentration of Antibody Log (M)' [panel Human CD8+ T-cells, table under the plot]. As for the experimental part: as §1, with “buffer. Human CD8 positive and monkey T cells in stain buffer were plated such that 50 ul of cell suspension, containing approximately 150,000 T cells, were added into wells of the 96-well V-bottom microplate containing the titrated antibodies.” for “buffer.”

For experiment [8], the target named is human CD8 alpha and beta subunit on JRT3.T3/AP1-Luc/CD28/CD8AB/1G4AB clone 18 reporter T cells (human, UniProt P01732 22-235; P10966 22-210). The experiment in a line: cell-based or functional assay.
human CD8 alpha and beta subunit on JRT3.T3/AP1-Luc/CD28/CD8AB/1G4AB clone 18 reporter T cells, sequence (P01732 22-235, chain 1 of 2): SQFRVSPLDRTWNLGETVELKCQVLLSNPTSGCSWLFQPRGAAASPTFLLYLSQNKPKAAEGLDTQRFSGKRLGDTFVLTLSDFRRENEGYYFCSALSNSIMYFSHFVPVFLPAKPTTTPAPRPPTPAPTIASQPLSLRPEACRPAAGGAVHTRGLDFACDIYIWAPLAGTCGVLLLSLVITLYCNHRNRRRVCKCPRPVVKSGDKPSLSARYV
human CD8 alpha and beta subunit on JRT3.T3/AP1-Luc/CD28/CD8AB/1G4AB clone 18 reporter T cells, sequence (P10966 22-210, chain 2 of 2): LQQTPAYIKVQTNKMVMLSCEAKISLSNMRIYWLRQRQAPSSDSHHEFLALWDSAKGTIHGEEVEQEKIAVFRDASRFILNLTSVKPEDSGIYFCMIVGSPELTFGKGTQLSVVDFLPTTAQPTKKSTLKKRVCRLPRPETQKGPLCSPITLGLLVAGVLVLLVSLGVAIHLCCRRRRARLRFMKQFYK

T3 sequence (P01732 22-182 limits assumed): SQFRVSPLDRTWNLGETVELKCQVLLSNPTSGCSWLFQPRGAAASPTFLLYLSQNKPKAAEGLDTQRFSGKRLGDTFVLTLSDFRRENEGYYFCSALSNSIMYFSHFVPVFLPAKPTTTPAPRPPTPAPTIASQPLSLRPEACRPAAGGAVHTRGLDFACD
T1 sequence (P01732 22-235, chain 1 of 2): as the sequence (P01732 22-235, chain 1 of 2) above
T1 sequence (P10966 22-210, chain 2 of 2): as the sequence (P10966 22-210, chain 2 of 2) above

B1: mAb1 (anti-CD8 monoclonal antibody) (antibody, V domains shown)
VH: QVQLVESGGGVDQPGRSLRLSCAASGFIFSNYGIHWVRQAPGKGLEWVAVIWYDGSNKYFEDSVKGRFNISRDNSKNIVYLQMNSLRAEDTAVYFCARSYDMLTGSGDYYGLDVWGQGTTVTVSS
VL: DIQMTQSPSSLSASVGDRVTITCRASQDITNYLAWFQQKPGKAPKSLIYGASSLQSGVPSKFSGSGSGTDFTLTISSLQPEDFATYYCQQYNNYPLTFGGGTKVEIK
notes: It was captured by anti-mouse Fc in SPR and detected with anti-mouse IgG in flow cytometry; It is tied here because mAb1 is the only exemplary antibody; also called H2aM25428N; mAb1-L1
As usually defined, the EC50 is the concentration giving half of the maximal effect. Broadly, the Kd is the concentration at which binding is half-saturated. The term koff denotes the first-order rate constant of dissociation. The term kon denotes the second-order rate constant of association. For B1, in experiment [1], the “Fold Change (MFI compared to isotype control antibody at 25 nM)” value came to 2780 fold. The EC50 in experiment [2] was found to be 0.37 nM; in experiment [3] it was 0.33 nM; in experiment [5] it was 0.329 nM; in experiment [7], 0.369 nM. Further, the “Fold Change (MFI compared to isotype control at 25 nM)” value in experiment [4] was found to be 1480 fold. Also, the Kd in experiment [6] stood at 32.6 nM. The same molecule showed a koff in experiment [6] of 0.00519 s⁻¹. In addition, the kon in experiment [6] worked out at 159000 M⁻¹ s⁻¹. For the same molecule, the “t1/2” value in experiment [6] is 2.2 min. Moreover, the “IC50 [M], reduction of AP1-luciferase activity in CD8 T cell/APC luciferase assay” value in experiment [8] came out at 1.2e-09 M.
